Where a chain is given by its changes, count along the chain named. In names and notes the source's numbering stands.
T1: full-length Snf7^(R52E E95K E102K E109K) (Saccharomyces cerevisiae, UniProt P39929 1-240, R52E | E95K | E102K | E109K)
T1 construct: Snf7 (Vps32), S. cerevisiae, full length, charge inversion on α2/3; source: E. coli BL21 or C41, purified (TALON, Superdex-200)
T1 sequence (looked up): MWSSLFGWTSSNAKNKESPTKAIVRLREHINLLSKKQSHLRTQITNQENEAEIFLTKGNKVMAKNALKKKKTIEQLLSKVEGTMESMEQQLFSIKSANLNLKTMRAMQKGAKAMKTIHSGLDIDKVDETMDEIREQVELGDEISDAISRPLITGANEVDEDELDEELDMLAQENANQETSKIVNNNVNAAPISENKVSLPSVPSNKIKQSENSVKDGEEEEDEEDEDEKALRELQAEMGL

B1: Snf7^core (Saccharomyces cerevisiae Snf7 residues 12-150) (domain or fragment, UniProt P39929 12-150, looked up)
chain: NAKNKESPTKAIVRLREHINLLSKKQSHLRTQITNQENEARIFLTKGNKVMAKNALKKKKTIEQLLSKVEGTMESMEQQLFSIESANLNLETMRAMQEGAKAMKTIHSGLDIDKVDETMDEIREQVELGDEISDAISRP
notes: Snf7 (Vps32), S. cerevisiae, core domain, residues 12-150; One molecule in the asymmetric unit; the protofilament is built by the crystal lattice; also called Snf7 core domain; open conformation A; source: E. coli Rosetta, purified (TALON, Superdex-200); not shown: His6-Sumo, N-terminal, cleaved
B2: full-length Snf7^(R52E E88C H118C), MTSL-labeled (natural protein, Saccharomyces cerevisiae, UniProt P39929 1-240, looked up)
chain: T1 sequence (looked up) with E88C, K95E, K102E, K109E, H118C
modifications: MTSL nitroxide spin label on cysteines 88 and 118
notes: Snf7 (Vps32), S. cerevisiae, full length; also called double-labeled Snf7^(R52E E88C H118C); source: E. coli BL21 or C41, purified (TALON, Superdex-200)
B3: full-length Snf7^(R52E K35C), MTSL-labeled (natural protein, Saccharomyces cerevisiae, UniProt P39929 1-240, looked up)
chain: T1 sequence (looked up) with K35C, K95E, K102E, K109E
modifications: MTSL nitroxide spin label on cysteine 35
notes: Snf7 (Vps32), S. cerevisiae, full length; source: E. coli BL21 or C41, purified (TALON, Superdex-200)
B4: full-length Snf7^(R52E G140C), MTSL-labeled (natural protein, Saccharomyces cerevisiae, UniProt P39929 1-240, looked up)
chain: T1 sequence (looked up) with K95E, K102E, K109E, G140C
modifications: MTSL nitroxide spin label on cysteine 140
notes: as for B3
B5: full-length Snf7^(R52E H118C), MTSL-labeled (natural protein, Saccharomyces cerevisiae, UniProt P39929 1-240, looked up)
chain: T1 sequence (looked up) with K95E, K102E, K109E, H118C
modifications: MTSL nitroxide spin label on cysteine 118
notes: as for B3
B6: full-length Snf7^(R52E K60C), MTSL-labeled (natural protein, Saccharomyces cerevisiae, UniProt P39929 1-240, looked up)
chain: T1 sequence (looked up) with K60C, K95E, K102E, K109E
modifications: MTSL nitroxide spin label on cysteine 60
notes: as for B3
B7: full-length Snf7^(R52E R25E H29E K36E) (natural protein, Saccharomyces cerevisiae, UniProt P39929 1-240, looked up)
chain: T1 sequence (looked up) with R25E, H29E, K36E, K95E, K102E, K109E
notes: Snf7 (Vps32), S. cerevisiae, full length, charge inversion on α1; source: E. coli BL21 or C41, purified (TALON, Superdex-200)
B8: full-length Snf7^(R52E T20C), MTSL-labeled (natural protein, Saccharomyces cerevisiae, UniProt P39929 1-240, looked up)
chain: T1 sequence (looked up) with T20C, K95E, K102E, K109E
modifications: MTSL nitroxide spin label on cysteine 20
notes: as for B3
B9: full-length Snf7^(R52E K60C A66C), MTSL-labeled (natural protein, Saccharomyces cerevisiae, UniProt P39929 1-240, looked up)
chain: T1 sequence (looked up) with K60C, A66C, K95E, K102E, K109E
modifications: MTSL nitroxide spin label on cysteines 60 and 66
notes: Snf7 (Vps32), S. cerevisiae, full length; also called double-labeled Snf7^(R52E K60C A66C); source: E. coli BL21 or C41, purified (TALON, Superdex-200)
B10: full-length Snf7^(R52E E88C), MTSL-labeled (natural protein, Saccharomyces cerevisiae, UniProt P39929 1-240, looked up)
chain: T1 sequence (looked up) with E88C, K95E, K102E, K109E
modifications: MTSL nitroxide spin label on cysteine 88
notes: as for B3
B11: full-length Snf7^R52E (natural protein, Saccharomyces cerevisiae, UniProt P39929 1-240, looked up)
chain: T1 sequence (looked up) with K95E, K102E, K109E
notes: purification as in Henne et al., 2012; also called unlabeled Snf7^R52E; source: E. coli BL21 or C41, purified (TALON, Superdex-200)

How the values were obtained:
[1] = target: the molecule itself; assay: crystal structure; Snf7^core crystals, conformation A (2.4 Å) and B (1.6 Å), space group P2_1, one molecule in the asymmetric unit; protofilaments formed in the crystal lattice; grown at pH 5.5 (MES:NaOH, NaCl, PEG20,000), 4 °C
[2] = target: the molecule itself; assay: negative stain TEM; recombinant Snf7 proteins, protofilament formation seen by negative stain transmission electron microscopy; as in Henne et al., 2012
[3] = target: T1, full-length Snf7^(R52E E95K E102K E109K); assay: as above; conditions: both partners purified
[4] = target: B2; assay: DEER (pulsed dipolar ESR spectroscopy); MTSL-labeled full-length Snf7 proteins (10-30 μM), alone or diluted with unlabeled Snf7^R52E, incubated with DOPC/DOPS/PI(3)P liposomes at room temperature for 15 min, pelleted by ultracentrifugation; 150 mM NaCl, 20 mM HEPES pD7.4; DEER at 60 K; conditions: both partners purified
[5] = target: B9; assay: as above; conditions: both partners purified

B1
binding result [1]: binds

B2
binding result [2]: binds

B3
binding result [2]: binds

B4
binding result [2]: binds

B5
binding result [2]: binds

B6
binding result [2]: binds

B7
binding result [3]: binds

B8
binding result [2]: binds

B9
binding result [2]: binds

B10
binding result [2]: binds

B11
binding result [2]: binds | binding result [4]: binds | binding result [5]: binds
